Experimental data taken from US8961929B2, “Targeting agent for tumor site” (FUJIFILM Corporation, priority 2010, dated 2015).

Assay: Isoelectric point of gelatin
Type: physicochemical
Conditions: recombinant gelatin CBE3

CBE3: recombinant gelatin, SEQ ID NO: 1, Gly-Ala-Pro[(Gly-X-Y)63]3Gly, 571 amino acids, 12 RGD sequences
Isoelectric point: 9.34
